The record followed here is the DeepSol protein solubility set.

The nature of the data set: soluble on expression in E. coli; label from the status in PepcDB or PDB records.
As to “PISSEQKQLISQLTDLGYSFDGLQTGYPGGEPDWHYVKELSGIEEKDLIKSFSKKGKPLVKKAKTFGIKLKKLKRDELSIFKEITSATSDRREYSDKSLDYYQDFYDAFGDNADFMVATLNFQDYFDHLESNQAKLRARIVKLQADLETNPTSEKKQNQLRELSSQLETFDVRKGEATAFIDKYGQEDIVLAGSLFVYTPQEAVYLFSGSYPEFNKFYAPALLQEYVMTQAIKRGIGFYNFLGIMGIFDGSDGVLRFKQNFNGYIVRKMGTFRYYPQPLKYKAIQGVKKLLGRN”, the “soluble on expression in E. coli” value is “not soluble”.
For the sequence “MGSDKIHHHHHHMYEDYYRFSAKPFQLNPDPRFFYGSKGHKRAMAYLDYGLSLGEGFIVITGEVGAGKTTLVRNLFRQLEAHNLVAAQLVSTQLDAEDTLRSVAASFGLEHEGLTKSALLKNLESFLAAAARQGKRALLVVDEAQNLTPRAVEELRMLSNFQNDERSLIQTFLLGQPEFRGILQSPDMQQLRQRVVASYHLGPLDADETRGYIEHRLRTVGWQGMPGFDDDAFAALHRFSGGIPRRLNTTCDRLLLFGFLEEKRHFGEAEVDEVIADLRSEVAHQDFDRGAKPDARAADAFYAEDGGRLAQRIEQLERSVNRILPIVRKILYTVSEREAANDDTPQGPHDPAR”, the “soluble on expression in E. coli” value is “not soluble”.
With “MEQNIATAQVSVARPNWDKSRLVSRIVHLGCGAFHRAHQALFTHHLLEKSDSDWGICEVNLMPGNDARLIANLKAQNLLYTVAERGAESTELKIIGSMKEALHPEFDGHAGILAAMARPETAIVSLTVTEKGYCTDPASGELDVNNPLIQNDLAHPQQPKSAIGYIVEALNMRREQGLKAFTVLSCDNVRENGHVAKAAVLGLAKARDAALAAWIADNVTFPCTMVDRIVPAATEETLQLVADQLGVYDPCAIACEPFRQWVIEDNFVNGRPDWDTVGAQFVADVVPFEMMKLRMLNGSHSFLAYLGYLGGYDTIADTMTNPAYRRAALALMLDEQAPTLSMPEGTDLEGYANLLIARFTNPSLKHRTWQIAMDGSQKLPQRLLDPVRLHLQQGDDYRRLTLGVAGWMRYVGGVDEQGKTIDVVDPLLAQYQAIHQQYQTPEERVRGLLAIESIFGNDLPKNHEFVQAVTDAYQQLLQNGAKATVEALAK”, the “soluble on expression in E. coli” value is “not soluble”.
Then “MTVPDRSEIAGKWYVVALASNTEFFLREKDKMKMAMARISFLGEDELKVSYAVPKPNGCRKWETTFKKTSDDGEVYYSEEAKKKVEVLDTDYKSYAVIYATRVKDGRTLHMMRLYSRSPEVSPAATAIFRKLAGERNYTDEMVAMLPRQEECTVDEV”, with “soluble”.
For “MSLAEIGVDAAFIDLLVETFYGRVLEHQTLGPVFDARLAGRWPEHMARMKQFWTAIAFKNGSYGGKPVQAHLGVQGMSAELFPQWLALFSVTLDDIAPSRKAHDWFMETAERIARSLTLSLFYNPAMDDPAVKREGHHHHHH” the value was “not soluble”.
For “MNVILFDGICNLCNGAVTFVVKRDRKGLFRFVSLQSETGKSLLKRYAVESTNKTLYYFRNNRCYSKSTAILYILKDLGGFWQCLYPLILIPAKLRDAIYLLVSKYRYRIFGKADSCIKPFGFSSEESKRSDLEHHHHHH” the value was “not soluble”.
Consider “MHHHHHHAMNHETFLKRAVTLACEGVNAGIGGPFGAVIVKDGAIIAEGQNNVTTSNDPTAHAEVTAIRKACKVLGAYQLDDCILYTSCEPCPMCLGAIYWARPKAVFYAAEHTDAAEAGFDDSFIYKEIDKPAEERTIPFYQVTLTEHLSPFQAWRNFANKKEY”, for which the “soluble on expression in E. coli” value was “soluble”.
Take “MYRKEWQDPDRIVDQLPISPGFDIVDLGCGPGFFTLPLASRTDGKVYAVDASDEMIEILKERIDGHSNIIPVKARAENIPIPDGTVDLVFIANAFHDFDDRDAVLGEIYRILRDGGYLVDIDWKKDETTHGPPVDIRIDRKDALLLISSHNFDIVKEIEAGAHHYGLLFRKN”: the “soluble on expression in E. coli” value is given as “not soluble”.
In the case of “MTKLNAFLDTLGEGIRQKFWDIVAAAKTDAQTNLPSDKAKELAGEVISDFEQGNLFKSHQEISAELKSKFESLDDADKAAVKNLAKVYGKQAKALVMPHLPEDCKAKTDATDDAGKAAVAGGFDTGDYLPRKKRELLFIDNLTAAFREMRSRRGF”, the “soluble on expression in E. coli” value is recorded as “not soluble”.
